Measured values taken from patent US20040213794.

Test system: myelin basic protein (MBP)

Row | Substance | in gel kinase assay (MBP as substrate)
1 | Mst1, cleaved 34 kD form (amino-terminal half containing the N-terminal kinase domain), in neonatal rat cardiac myocytes | activation of the full length (61 kD) and cleaved (34 kD) forms of Mst1 after 6 hr Doxo stimulation of cardiac myocytes
2 | Mst1 (mammalian sterile 20-like kinase-1), full length 61 kD form, endogenous in neonatal rat cardiac myocytes | activation of the full length (61 kD) and cleaved (34 kD) forms of Mst1 after 6 hr Doxo stimulation of cardiac myocytes
